Assay results reported in US20080032921A1.

Columns and labels:
HLA-DR DRB1*0101 (human) [1] = assay: competition with 125I-labelled peptide for purified HLA-DR
HLA-DR DRB1*0301 (human) [2] = assay: as above
HLA-DR DRB1*0401 (human) [3] = assay: as above
HLA-DR DRB1*0404 (human) [4] = assay: as above
HLA-DR DRB1*0405 (human) [5] = assay: as above
HLA-DR DRB1*0701 (human) [6] = assay: as above
HLA-DR DRB1*0802 (human) [7] = assay: as above
HLA-DR DRB1*0901 (human) = assay: as above
HLA-DR DRB1*1101 (human) [8] = assay: as above
HLA-DR DRB1*1302 (human) [9] = assay: as above
HLA-DR DRB1*1501 (human) [10] = assay: as above
HLA-DR DRB4*0101 (human) [11] = assay: as above
HLA-DR DRB5*0101 (human) [12] = assay: as above
HLA-DR DRB1*0101 (human) [13] = assay: competition with 125I-labeled reference peptide, purified HLA
HLA-DR DRB1*0301 (human) [14] = assay: as above
HLA-DR DRB1*0401 (human) [15] = assay: as above
HLA-DR DRB1*0404 (human) [16] = assay: as above
HLA-DR DRB1*0405 (human) [17] = assay: as above
HLA-DR DRB1*0701 (human) [18] = assay: as above
HLA-DR DRB1*0802 (human) [19] = assay: as above
HLA-DR DRB1*1101 (human) [20] = assay: as above
HLA-DR DRB1*1302 (human) [21] = assay: as above
HLA-DR DRB1*1501 (human) [22] = assay: as above
HLA-DR DRB4*0101 (human) [23] = assay: as above
HLA-DR DRB5*0101 (human) [24] = assay: as above
[25] = molecular target: purified HLA DRB1*0101 (human); assay: competition with 125I-labelled reference peptide, purified HLA
[26] = molecular target: purified HLA DRB1*0301 (human); assay: as above
[27] = molecular target: purified HLA DRB1*0401 (human); assay: as above
[28] = molecular target: purified HLA DRB1*0404 (human); assay: as above
[29] = molecular target: purified HLA DRB1*0405 (human); assay: as above
[30] = molecular target: purified HLA DRB1*0701 (human); assay: as above
[31] = molecular target: purified HLA DRB1*1101 (human); assay: as above
[32] = molecular target: purified HLA DRB1*1302 (human); assay: as above
[33] = molecular target: purified HLA DRB1*1501 (human); assay: as above
[34] = molecular target: purified HLA DRB4*0101 (human); assay: as above
[35] = molecular target: purified HLA DRB5*0101 (human); assay: as above

For RREVHIYYLEKANKI (modifications not checked) [Flu.PA.127], the IC50 (HLA-DR DRB1*0101 (human) [1]) was 34 nM, the IC50 (HLA-DR DRB1*0301 (human) [2]) was > 10000 nM and the IC50 (HLA-DR DRB1*0401 (human) [3]) was 63 nM. It also gave an IC50 (HLA-DR DRB1*0404 (human) [4]) of 181 nM, an IC50 (HLA-DR DRB1*0405 (human) [5]) of 1490 nM and an IC50 (HLA-DR DRB1*0701 (human) [6]) of 23 nM. For the same binder, the IC50 (HLA-DR DRB1*0802 (human) [7]) was 95 nM, the IC50 (HLA-DR DRB1*0901 (human)) was 851 nM and the IC50 (HLA-DR DRB1*1101 (human) [8]) was 96 nM. It also gave an IC50 (HLA-DR DRB1*1302 (human) [9]) of 150 nM, an IC50 (HLA-DR DRB1*1501 (human) [10]) of 4.5 nM and an IC50 (HLA-DR DRB4*0101 (human) [11]) of 5 nM. For the same binder, the IC50 (HLA-DR DRB5*0101 (human) [12]) was 25 nM, the IC50 (HLA-DR DRB1*0101 (human) [13]) was 34 nM and the IC50 (HLA-DR DRB1*0301 (human) [14]) was > 10000 nM. For the same binder, the IC50 (HLA-DR DRB1*0401 (human) [15]) was 63 nM, the IC50 (HLA-DR DRB1*0404 (human) [16]) was 181 nM and the IC50 (HLA-DR DRB1*0405 (human) [17]) was 1490 nM. The IC50 (HLA-DR DRB1*0701 (human) [18]) was 23 nM, the IC50 (HLA-DR DRB1*0802 (human) [19]) was 95 nM and the IC50 (HLA-DR DRB1*1101 (human) [20]) was 96 nM. It also gave an IC50 (HLA-DR DRB1*1302 (human) [21]) of 150 nM, an IC50 (HLA-DR DRB1*1501 (human) [22]) of 4.5 nM and an IC50 (HLA-DR DRB4*0101 (human) [23]) of 5 nM. The IC50 (HLA-DR DRB5*0101 (human) [24]) was 25 nM.

With AKSMEYDAVATTHSW (modifications not checked) [Flu.PB1.655] the IC50 [25] was 202 nM, the IC50 [26] was 909 nM and the IC50 [27] was 53 nM. For the same binder, the IC50 [28] was 646 nM, the IC50 [29] was 626 nM and the IC50 [30] was 292 nM. For the same binder, the IC50 [31] was 6620 nM, the IC50 [32] was 2180 nM and the IC50 [33] was 1990 nM. For the same binder, the IC50 [34] was 6340 nM and the IC50 [35] was 3530 nM.
